# Data taken from paper PMC9482650, “Quantitative fragmentomics allow affinity mapping of interactomes” (Nature Communications, 2022).
# T1: LNX2_3, Q8N448
# T1 sequence (Q8N448 463-564, limits assumed, looked up): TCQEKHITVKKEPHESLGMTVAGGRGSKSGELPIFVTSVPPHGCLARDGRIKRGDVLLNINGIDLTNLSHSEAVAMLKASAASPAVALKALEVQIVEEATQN
# T2: PARD3B_1, Q8TEW8
# T2 sequence (Q8TEW8 196-299, limits assumed, looked up): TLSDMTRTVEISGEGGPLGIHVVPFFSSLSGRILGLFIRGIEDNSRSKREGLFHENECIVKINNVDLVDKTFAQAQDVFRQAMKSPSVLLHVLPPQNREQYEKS
# T3: GRIP1_2, Q9Y3R0
# T3 sequence (Q9Y3R0 145-248, limits assumed, looked up): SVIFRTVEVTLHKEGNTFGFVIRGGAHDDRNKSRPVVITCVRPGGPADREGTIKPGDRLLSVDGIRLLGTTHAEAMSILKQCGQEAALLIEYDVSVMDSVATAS
# T4: HTRA3, P83110
# T4 sequence (P83110 354-453, limits assumed, looked up): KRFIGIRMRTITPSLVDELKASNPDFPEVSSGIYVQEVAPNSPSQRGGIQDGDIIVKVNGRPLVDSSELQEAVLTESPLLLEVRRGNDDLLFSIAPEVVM
# T5: HTRA4, P83105
# T5 sequence (P83105 378-476, limits assumed, looked up): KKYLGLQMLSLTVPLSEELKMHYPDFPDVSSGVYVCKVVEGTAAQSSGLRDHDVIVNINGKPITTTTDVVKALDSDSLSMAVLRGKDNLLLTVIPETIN
# T6: GRIP1_4, Q9Y3R0
# T6 sequence (Q9Y3R0 467-571, limits assumed, looked up): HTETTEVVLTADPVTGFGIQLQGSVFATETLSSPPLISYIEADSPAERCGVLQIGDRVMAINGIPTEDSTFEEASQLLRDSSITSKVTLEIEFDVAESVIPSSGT
# T7: MPP6, Q9NZW5
# T7 sequence (Q9NZW5 125-219, limits assumed, looked up): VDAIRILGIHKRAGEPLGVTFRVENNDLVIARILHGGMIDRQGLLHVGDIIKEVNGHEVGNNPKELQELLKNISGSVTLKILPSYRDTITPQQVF
# T8: TX1BP3, O14907
# T8 sequence (O14907 10-122, limits assumed, looked up): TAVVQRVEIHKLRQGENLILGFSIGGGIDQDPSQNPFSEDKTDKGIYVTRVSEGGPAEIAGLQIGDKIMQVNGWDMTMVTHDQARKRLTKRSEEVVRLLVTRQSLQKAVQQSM
# T9: ARHGEF11, O15085
# T9 sequence (O15085 42-136, limits assumed, looked up): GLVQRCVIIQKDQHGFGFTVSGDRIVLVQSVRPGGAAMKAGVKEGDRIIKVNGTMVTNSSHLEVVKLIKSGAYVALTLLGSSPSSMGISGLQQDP
# T10: RAPGEF6, Q8TEU7
# T10 sequence (Q8TEU7 525-625, limits assumed, looked up): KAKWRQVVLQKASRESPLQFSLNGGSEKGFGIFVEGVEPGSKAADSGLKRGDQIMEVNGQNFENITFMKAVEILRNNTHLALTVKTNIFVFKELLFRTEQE
# T11: DLG3_3, Q92796
# T11 sequence (Q92796 374-475, limits assumed, looked up): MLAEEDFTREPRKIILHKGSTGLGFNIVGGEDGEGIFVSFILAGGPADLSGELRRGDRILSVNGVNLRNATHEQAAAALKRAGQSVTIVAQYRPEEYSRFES
# T12: PDZD7_3, Q9H5P4
# T12 sequence (Q9H5P4 857-944, limits assumed, looked up): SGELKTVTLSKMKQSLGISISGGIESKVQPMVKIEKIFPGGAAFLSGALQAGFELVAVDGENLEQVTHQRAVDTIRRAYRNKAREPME
# Tests used:
# Experiment in all cases: holdup assay
# Set-up in all cases: key: below the threshold = too weak to quantify, mostly under pKd 3.1 to 4
# [1] = biological target: CASK, O14936
# [2] = biological target: PDZRN4_1, Q6ZMN7
# [3] = biological target: GRIP2_3, Q9C0E4
# [4] = biological target: MAST1, Q9Y2H9
# [5] = biological target: T1, LNX2_3, Q8N448
# [6] = biological target: T2, PARD3B_1, Q8TEW8
# [7] = biological target: T3, GRIP1_2, Q9Y3R0
# [8] = biological target: SCRIB_3, Q14160
# [9] = biological target: NHERF2_2, Q15599
# [10] = biological target: PARD3_3, Q8TEW0
# [11] = biological target: T4, HTRA3, P83110
# [12] = biological target: MAGI1_1, Q96QZ7
# [13] = biological target: PTPN3, P26045
# [14] = biological target: T5, HTRA4, P83105
# [15] = biological target: Inadl_10, Q8NI35
# [16] = biological target: DLG1_1, Q12959
# [17] = biological target: T6, GRIP1_4, Q9Y3R0
# [18] = biological target: T7, MPP6, Q9NZW5
# [19] = biological target: LIMK2, P53671
# [20] = biological target: Inadl_9, Q8NI35
# [21] = biological target: T8, TX1BP3, O14907
# [22] = biological target: T9, ARHGEF11, O15085
# [23] = biological target: T10, RAPGEF6, Q8TEU7
# [24] = biological target: T11, DLG3_3, Q92796
# [25] = biological target: Inadl_4, Q8NI35
# [26] = biological target: T12, PDZD7_3, Q9H5P4
# [27] = plain residues with an end cap or a label only (N-terminal biotin on a linker: ttds)
# [28] = plain residues with an end cap or a label only (N-terminal biotin on a linker: gsgsgs; C-terminal amide)
# Sequence of Inadl_9, Q8NI35 (Q8NI35 1530-1615): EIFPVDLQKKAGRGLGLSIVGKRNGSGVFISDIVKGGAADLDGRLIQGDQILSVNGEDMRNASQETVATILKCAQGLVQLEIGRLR
# Sequence of MAST1, Q9Y2H9 (Q9Y2H9 962-1065): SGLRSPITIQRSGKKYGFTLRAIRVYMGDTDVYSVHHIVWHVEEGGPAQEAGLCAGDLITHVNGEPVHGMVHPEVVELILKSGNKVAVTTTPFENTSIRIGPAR
# Sequence of MAGI1_1, Q96QZ7 (Q96QZ7 1-106): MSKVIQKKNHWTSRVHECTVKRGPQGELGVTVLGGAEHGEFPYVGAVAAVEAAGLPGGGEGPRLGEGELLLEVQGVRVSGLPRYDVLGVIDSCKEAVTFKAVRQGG
# Sequence of GRIP2_3, Q9C0E4 (Q9C0E4 238-339): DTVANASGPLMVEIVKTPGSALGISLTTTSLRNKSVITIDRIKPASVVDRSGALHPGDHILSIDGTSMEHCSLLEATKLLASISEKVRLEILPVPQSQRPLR
# Sequence of LIMK2, P53671 (P53671 143-248): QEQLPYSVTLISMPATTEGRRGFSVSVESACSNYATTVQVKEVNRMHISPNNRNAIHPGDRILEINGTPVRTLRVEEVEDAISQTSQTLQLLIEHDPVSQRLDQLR
# Sequence of PDZRN4_1, Q6ZMN7 (Q6ZMN7 213-318): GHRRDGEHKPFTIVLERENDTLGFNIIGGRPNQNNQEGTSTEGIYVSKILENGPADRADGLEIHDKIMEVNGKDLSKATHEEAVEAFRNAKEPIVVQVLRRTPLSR
# Sequence of Inadl_4, Q8NI35 (Q8NI35 547-651): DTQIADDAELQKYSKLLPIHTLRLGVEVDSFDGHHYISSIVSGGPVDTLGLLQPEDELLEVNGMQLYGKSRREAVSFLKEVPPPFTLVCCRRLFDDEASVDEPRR
# Sequence of PARD3_3, Q8TEW0 (Q8TEW0 582-685): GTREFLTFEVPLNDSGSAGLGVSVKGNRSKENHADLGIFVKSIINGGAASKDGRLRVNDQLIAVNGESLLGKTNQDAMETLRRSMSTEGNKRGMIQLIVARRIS
# Sequence of PTPN3, P26045 (P26045 505-587): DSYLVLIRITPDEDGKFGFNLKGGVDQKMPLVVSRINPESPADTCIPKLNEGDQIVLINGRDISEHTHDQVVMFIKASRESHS
# Sequence of Inadl_10, Q8NI35 (Q8NI35 1673-1763): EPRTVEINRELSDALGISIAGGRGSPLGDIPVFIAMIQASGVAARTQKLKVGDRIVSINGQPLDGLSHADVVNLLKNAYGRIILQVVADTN
# Sequence of NHERF2_2, Q15599 (Q15599 142-238): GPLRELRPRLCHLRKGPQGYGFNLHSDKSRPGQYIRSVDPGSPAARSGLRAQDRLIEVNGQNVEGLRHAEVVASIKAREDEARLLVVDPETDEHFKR
# Sequence of CASK, O14936 (O14936 487-570): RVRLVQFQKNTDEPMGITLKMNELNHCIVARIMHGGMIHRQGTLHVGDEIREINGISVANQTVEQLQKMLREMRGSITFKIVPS
# Sequence of SCRIB_3, Q14160 (Q14160 999-1103): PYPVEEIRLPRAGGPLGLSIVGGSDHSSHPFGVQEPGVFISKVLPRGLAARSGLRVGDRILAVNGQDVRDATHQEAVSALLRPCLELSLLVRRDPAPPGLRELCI
binder,measurement,setting,value
"TVASEKESVM [SLC1A5, Q15758]",pKd,[1]; [27],below the threshold
same,pKd,[2]; [27],3.87
same,pKd,[3]; [27],below the threshold
same,pKd,[4]; [27],4.2
same,pKd,[5]; [27],below the threshold
same,pKd,[6]; [27],3.61
same,pKd,[7]; [27],below the threshold
same,pKd,[8]; [27],3.97
same,pKd,[9]; [27],3.51
same,pKd,[10]; [27],below the threshold
same,pKd,[11]; [27],below the threshold
same,pKd,[12]; [27],below the threshold
same,pKd,[13]; [27],4.94
same,pKd,[14]; [27],below the threshold
same,pKd,[15]; [27],below the threshold
same,pKd,[16]; [27],below the threshold
same,pKd,[17]; [27],below the threshold
same,pKd,[18]; [27],below the threshold
same,pKd,[19]; [27],below the threshold
same,pKd,[20]; [27],below the threshold
same,pKd,[21]; [27],3.69
same,pKd,[22]; [27],3.56
same,pKd,[23]; [27],below the threshold
same,pKd,[24]; [27],3.66
same,pKd,[25]; [27],below the threshold
same,pKd,[26]; [27],3.71
"TLSLTDSSVDGIPPYR [AXIN1_int, O15169]",pKd,[1]; [28],below the threshold
same,pKd,[2]; [28],below the threshold
same,pKd,[3]; [28],below the threshold
same,pKd,[4]; [28],3.68
same,pKd,[5]; [28],below the threshold
same,pKd,[6]; [28],below the threshold
same,pKd,[7]; [28],below the threshold
same,pKd,[8]; [28],below the threshold
same,pKd,[9]; [28],below the threshold
same,pKd,[10]; [28],below the threshold
same,pKd,[11]; [28],below the threshold
same,pKd,[12]; [28],below the threshold
same,pKd,[13]; [28],3.83
same,pKd,[14]; [28],below the threshold
same,pKd,[15]; [28],below the threshold
same,pKd,[16]; [28],below the threshold
same,pKd,[17]; [28],below the threshold
same,pKd,[18]; [28],3.93
same,pKd,[19]; [28],below the threshold
same,pKd,[20]; [28],below the threshold
same,pKd,[21]; [28],3.78
same,pKd,[22]; [28],below the threshold
same,pKd,[23]; [28],below the threshold
same,pKd,[24]; [28],below the threshold
same,pKd,[25]; [28],below the threshold
same,pKd,[26]; [28],below the threshold
"SSRTRRETQL [HPV16-E6, P03126]",pKd,[1]; [27],below the threshold
same,pKd,[2]; [27],5.25
same,pKd,[3]; [27],below the threshold
same,pKd,[4]; [27],4.23
same,pKd,[5]; [27],below the threshold
same,pKd,[6]; [27],below the threshold
same,pKd,[7]; [27],below the threshold
same,pKd,[8]; [27],5.29
same,pKd,[9]; [27],4.19
same,pKd,[10]; [27],3.65
same,pKd,[11]; [27],below the threshold
same,pKd,[12]; [27],3.5
same,pKd,[13]; [27],5.06
same,pKd,[14]; [27],below the threshold
same,pKd,[15]; [27],below the threshold
same,pKd,[16]; [27],4.67
same,pKd,[17]; [27],below the threshold
same,pKd,[18]; [27],3.58
same,pKd,[19]; [27],below the threshold
same,pKd,[20]; [27],below the threshold
same,pKd,[21]; [27],4.87
same,pKd,[22]; [27],4.15
same,pKd,[23]; [27],3.66
same,pKd,[24]; [27],4.88
same,pKd,[25]; [27],below the threshold
same,pKd,[26]; [27],4.68
"IYVPEAQTRL [DLGAP4, Q9Y2H0]",pKd,[1]; [27],below the threshold
same,pKd,[2]; [27],4.08
same,pKd,[3]; [27],below the threshold
same,pKd,[4]; [27],5.01
same,pKd,[5]; [27],below the threshold
same,pKd,[6]; [27],4.16
same,pKd,[7]; [27],below the threshold
same,pKd,[8]; [27],3.98
same,pKd,[9]; [27],4.84
same,pKd,[10]; [27],3.87
same,pKd,[11]; [27],below the threshold
same,pKd,[12]; [27],below the threshold
same,pKd,[13]; [27],4.38
same,pKd,[14]; [27],below the threshold
same,pKd,[15]; [27],below the threshold
same,pKd,[16]; [27],below the threshold
same,pKd,[17]; [27],below the threshold
same,pKd,[18]; [27],below the threshold
same,pKd,[19]; [27],below the threshold
same,pKd,[20]; [27],below the threshold
same,pKd,[21]; [27],below the threshold
same,pKd,[22]; [27],3.7
same,pKd,[23]; [27],below the threshold
same,pKd,[24]; [27],below the threshold
same,pKd,[25]; [27],below the threshold
same,pKd,[26]; [27],4.31
"PKTPPTDTSV [KIR3DL3, Q8N743]",pKd,[1]; [27],below the threshold
same,pKd,[2]; [27],below the threshold
same,pKd,[3]; [27],below the threshold
same,pKd,[4]; [27],below the threshold
same,pKd,[5]; [27],below the threshold
same,pKd,[6]; [27],below the threshold
same,pKd,[7]; [27],below the threshold
same,pKd,[8]; [27],below the threshold
same,pKd,[9]; [27],below the threshold
same,pKd,[10]; [27],below the threshold
same,pKd,[11]; [27],below the threshold
same,pKd,[12]; [27],below the threshold
same,pKd,[13]; [27],4.48
same,pKd,[14]; [27],below the threshold
same,pKd,[15]; [27],below the threshold
same,pKd,[16]; [27],4.02
same,pKd,[17]; [27],below the threshold
same,pKd,[18]; [27],below the threshold
same,pKd,[19]; [27],below the threshold
same,pKd,[20]; [27],below the threshold
same,pKd,[21]; [27],3.67
same,pKd,[22]; [27],below the threshold
same,pKd,[23]; [27],below the threshold
same,pKd,[24]; [27],below the threshold
same,pKd,[25]; [27],below the threshold
same,pKd,[26]; [27],3.61
